These results are taken from patent US20260242478A1 (published 2026).

For assay [1], the target named is T1, PSMA Fab (biotinylated (site not stated)).
T1 construct: also called Anti-PSMA Fab; 006 PSMA Fab
Kind of assay: clonal phage ELISA on captured PSMA Fab pre-incubated with PSMA antigen (competitor: PSMA), anti-M13-HRP detection. For orientation: In an ELISA, binding on a coated surface is turned into a signal by an enzyme label.

Assay [2] addresses T1, PSMA Fab. Nature of the assay: clonal phage ELISA on biotinylated PSMA Fab captured on neutravidin plates, blocking buffer alone, anti-M13-HRP detection.
Experimental: (§1) Clonal phage were harvested as crude supernatants and screened via standard ELISAs. […] Prior to the addition of clonal phage. wells were incubated with blocking buffer and PSMA antigen or blocking buffer alone. Without washing or aspirating, clonal phage supernatants were then added to the wells and incubated for a short time. Wells were then washed followed by detection of bound phage using a horse radish conjugated anti-M13 antibody.
The target in assay [3] is T2, PSMA Fab (biotinylated (site not stated)).
T2 construct: also called Anti-PSMA Fab; 006 PSMA Fab
Nature of the assay: clonal phage ELISA on biotinylated PSMA Fab captured on neutravidin plates, anti-M13 HRP detection.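 Also: crude clonal phage supernatants tested, before phage were added, wells were pretreated with PSMA antigen in blocking buffer or with blocking buffer only.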

For assay [4], the target named is T2, PSMA Fab. Nature of the assay: clonal phage ELISA on captured PSMA Fab, wells pre-incubated with PSMA antigen as competitor; column meaning inferred.
Experimental: as §1
Assay [5] has as its target T3, PSMA Fab (biotinylated (site not stated)).
T3 construct: also called Anti-PSMA Fab; 006 PSMA Fab
Nature of the assay: clonal phage ELISA; biotinylated PSMA Fab on neutravidin plate; bound phage detected with anti-M13-HRP.

Assay [6] addresses T3, PSMA Fab. Kind of assay: clonal phage ELISA; PSMA Fab wells pre-incubated with PSMA antigen as competitor; anti-M13-HRP detection.
Experimental: as §1

Where no end group is shown, it is not given here.

B1: Phage-2582 (peptide)
peptide: EGKWCIPEWMCISV
notes: Clonal phage displaying the peptide, tested as crude supernatant; also called peptide-180 library clone; not shown: fused to the pIII filament protein of the bacteriophage
For the molecule B1, in the assay with PSMA Fab [1], the “phage binding ELISA signal in presence of PSMA” value was found to be 0.0637. The “phage binding ELISA signal” value in the assay with PSMA Fab [2] amounted to 1.08.

B2: Phage-2614 (peptide)
peptide: HVNWCTPKWMCSGF
modifications: cysteine pairing not given here; also: displayed on phage pIII, linker not given here
notes: Clonal phage of the peptide-180 library; not shown: fused to pIII of the bacteriophage
For B2, in the assay with PSMA Fab [3], the “Phage binding ELISA signal, Anti-PSMA Fab” value was 1.02. In addition, in the assay with PSMA Fab [4], the “Phage binding ELISA signal, Anti-PSMA Fab in presence of PSMA antigen” value (“Phage binding ELISA signal … of PSMA antigen” below) came to 0.0894.

B3: Phage-2611 (peptide)
peptide: VEKWCIPEWMCETS
modifications: cysteine pairing not given here; also: displayed on phage pIII, linker not given here
notes: as for B2
Regarding B3, the “Phage binding ELISA signal, Anti-PSMA Fab” value with PSMA Fab [3] came out at 1.02. For the same molecule, the “Phage binding ELISA signal … of PSMA antigen” value in the assay with PSMA Fab [4] came to 0.0624.

B4: Phage-2605 (peptide)
peptide: VMKWCTPSWMCEHI
modifications: cysteine pairing not given here; also: displayed on phage as pIII fusion, linker and pIII sequence not given here
notes: as for B2
Turning to B4, the “Phage binding ELISA signal, Anti-PSMA Fab” value in the assay with PSMA Fab [3] was 1.03. Moreover, the “Phage binding ELISA signal … of PSMA antigen” value with PSMA Fab [4] was 0.0582.

B5: Phage-2613 (peptide)
peptide: MYNLCTPEWMCAGF
modifications: cysteine pairing not given here; also: displayed on phage pIII, linker not given here
notes: as for B2
Regarding B5, the “Phage binding ELISA signal, Anti-PSMA Fab” value with PSMA Fab [3] came to 1.02. For the same molecule, the “Phage binding ELISA signal … of PSMA antigen” value with PSMA Fab [4] amounted to 0.0554.

B6: Phage-2606 (peptide)
peptide: VDKWCIPAWMCDRS
modifications: cysteine pairing not given here; also: displayed on phage as pIII fusion, linker and pIII sequence not given here
notes: as for B2
For the molecule B6, the “Phage binding ELISA signal, Anti-PSMA Fab” value with PSMA Fab [3] is 1.03. For the same molecule, in the assay with PSMA Fab [4], the “Phage binding ELISA signal … of PSMA antigen” value amounted to 0.0604.

B7: Phage-2604 (peptide)
peptide: VWQLCIPPWMCQFE
modifications: cysteine pairing not given here; also: displayed on phage as pIII fusion, linker and pIII sequence not given here
notes: as for B2
Consider B7, for which the “Phage binding ELISA signal, Anti-PSMA Fab” value with PSMA Fab [3] is 1.03. For the same molecule, the “Phage binding ELISA signal … of PSMA antigen” value with PSMA Fab [4] worked out at 0.113.

On to TPKWCTPPWMCQHG [Phage-2623], for which the “Phage binding ELISA signal, Anti-PSMA Fab” value with PSMA Fab [5] was found to be 0.994. Moreover, the “Phage binding ELISA signal, Anti-PSMA Fab with PSMA antigen” value with PSMA Fab [6] is 0.0728.

B8: Phage-2585 (peptide)
peptide: DLKRCIPDWMCAVA
modifications: cysteine pairing not given here; also: fused to phage pIII, linker and fusion site not given here
notes: as for B1
For the molecule B8, the “phage binding ELISA signal in presence of PSMA” value with PSMA Fab [1] turned out to be 0.0617. Moreover, the “phage binding ELISA signal” value with PSMA Fab [2] amounted to 1.07.

Turning to PETRCIPSWMCSGM [Phage-2625], the “Phage binding ELISA signal, Anti-PSMA Fab” value in the assay with PSMA Fab [5] is 0.989. For the same molecule, the “Phage binding ELISA signal, Anti-PSMA Fab with PSMA antigen” value with PSMA Fab [6] is 0.0912.

B9: Phage-2609 (peptide)
peptide: MVKWCTPAWMCTLE
modifications: cysteine pairing not given here; also: displayed on phage as pIII fusion, linker and pIII sequence not given here
notes: as for B2
Consider B9, for which the “Phage binding ELISA signal, Anti-PSMA Fab” value with PSMA Fab [3] worked out at 1.02. Also, the “Phage binding ELISA signal … of PSMA antigen” value with PSMA Fab [4] worked out at 0.0801.

B10: Phage-2583 (peptide)
peptide: EVMWCRPAWMCDGI
notes: as for B1
Turning to B10, the “phage binding ELISA signal in presence of PSMA” value with PSMA Fab [1] came to 0.0623. The “phage binding ELISA signal” value with PSMA Fab [2] stood at 1.07.

B11: Phage-2615 (peptide)
peptide: HEKWCIPPWMCEAN
modifications: cysteine pairing not given here; also: fused to phage pIII (clonal phage display)
notes: as for B2
B11: the “Phage binding ELISA signal, Anti-PSMA Fab” value in the assay with PSMA Fab [3] came to 1.01. Moreover, in the assay with PSMA Fab [4], the “Phage binding ELISA signal … of PSMA antigen” value was found to be 0.0603.

B12: Phage-2586 (peptide)
peptide: ETQMCVPQWMCWGI
notes: as for B1
As for B12, the “phage binding ELISA signal in presence of PSMA” value with PSMA Fab [1] is 0.0571. Also, in the assay with PSMA Fab [2], the “phage binding ELISA signal” value came to 1.07.

As for MNKWCTPAWMCEVV (cysteine pairing not given here; also: displayed on phage as pIII fusion) [Phage-2619], the “Phage binding ELISA signal, Anti-PSMA Fab” value in the assay with PSMA Fab [5] is 0.998. In the assay with PSMA Fab [6], the “Phage binding ELISA signal, Anti-PSMA Fab with PSMA antigen” value is 0.095.

B13: Phage-2616 (peptide)
peptide: QDNWCIPRWMCEAM
modifications: cysteine pairing not given here; also: displayed on phage pIII, linker not given here
notes: as for B2
Take B13: the “Phage binding ELISA signal, Anti-PSMA Fab” value in the assay with PSMA Fab [3] was 1.01. In addition, the “Phage binding ELISA signal … of PSMA antigen” value in the assay with PSMA Fab [4] was 0.0626.

B14: Phage-2584 (peptide)
peptide: VVKWCKPAWMCEQA
notes: as for B1
Turning to B14, the “phage binding ELISA signal in presence of PSMA” value with PSMA Fab [1] was determined as 0.0788. For the same molecule, the “phage binding ELISA signal” value with PSMA Fab [2] is 1.07.

For IANWCTPQWMCDGF [Phage-2620], in the assay with PSMA Fab [5], the “Phage binding ELISA signal, Anti-PSMA Fab” value is 0.997. Further, in the assay with PSMA Fab [6], the “Phage binding ELISA signal, Anti-PSMA Fab with PSMA antigen” value was 0.0631.

For FHMWCTPAWMCADQ (cysteine pairing not given here; also: displayed on phage as pIII fusion) [Phage-2622], the “Phage binding ELISA signal, Anti-PSMA Fab” value with PSMA Fab [5] turned out to be 0.996. For the same molecule, in the assay with PSMA Fab [6], the “Phage binding ELISA signal, Anti-PSMA Fab with PSMA antigen” value was found to be 0.126.

B15: Phage-2581 (peptide)
peptide: SEKWCIPEWMCMYA
notes: as for B1
B15: the “phage binding ELISA signal in presence of PSMA” value with PSMA Fab [1] was 0.0532. Besides, the “phage binding ELISA signal” value with PSMA Fab [2] is 1.08.

B16: Phage-2617 (peptide)
peptide: YTPWCKPAWMCSVS
modifications: cysteine pairing not given here; also: displayed on phage pIII, linker not given here
notes: as for B2
With B16, the “Phage binding ELISA signal, Anti-PSMA Fab” value with PSMA Fab [3] came out at 1.01. Further, the “Phage binding ELISA signal … of PSMA antigen” value with PSMA Fab [4] is 0.0806.

B17: Phage-2618 (peptide)
peptide: AFKWCIPNWMCASQ
modifications: cysteine pairing not given here; also: fused to phage pIII (clonal phage display)
notes: as for B2
For B17, the “Phage binding ELISA signal, Anti-PSMA Fab” value with PSMA Fab [3] came out at 1.01. Moreover, the “Phage binding ELISA signal … of PSMA antigen” value with PSMA Fab [4] is 0.0999.

B18: Phage-2607 (peptide)
peptide: QMKLCIPQWMCVDH
modifications: cysteine pairing not given here; also: displayed on phage as pIII fusion, linker and pIII sequence not given here
notes: as for B2
Consider B18, for which the “Phage binding ELISA signal, Anti-PSMA Fab” value with PSMA Fab [3] stood at 1.03. In addition, the “Phage binding ELISA signal … of PSMA antigen” value with PSMA Fab [4] was determined as 0.0553.

B19: Phage-2587 (peptide)
peptide: VGKWCVPMWMCATD
modifications: cysteine pairing not given here; also: fused to phage pIII, linker and fusion site not given here
notes: as for B1
As to B19, the “phage binding ELISA signal in presence of PSMA” value with PSMA Fab [1] stood at 0.0735. Moreover, the “phage binding ELISA signal” value with PSMA Fab [2] came out at 1.06.

MTQWCIPEWMCSEE [Phage-2624]: the “Phage binding ELISA signal, Anti-PSMA Fab” value with PSMA Fab [5] came to 0.99. In addition, the “Phage binding ELISA signal, Anti-PSMA Fab with PSMA antigen” value in the assay with PSMA Fab [6] was found to be 0.0648.

B20: Phage-2608 (peptide)
peptide: LHKLCIPEWMCEYY
modifications: cysteine pairing not given here; also: displayed on phage as pIII fusion, linker and pIII sequence not given here
notes: as for B2
In the case of B20, the “Phage binding ELISA signal, Anti-PSMA Fab” value with PSMA Fab [3] was 1.03. In addition, the “Phage binding ELISA signal … of PSMA antigen” value in the assay with PSMA Fab [4] turned out to be 0.0595.

B21: Phage-2612 (peptide)
peptide: FANWCTPSWMCVGM
modifications: cysteine pairing not given here; also: displayed on phage pIII, linker not given here
notes: as for B2
On to B21, for which the “Phage binding ELISA signal, Anti-PSMA Fab” value with PSMA Fab [3] was 1.02. For the same molecule, the “Phage binding ELISA signal … of PSMA antigen” value with PSMA Fab [4] is 0.0676.

Take VPKWCTPDWMCYGM [Phage-2621]: the “Phage binding ELISA signal, Anti-PSMA Fab” value in the assay with PSMA Fab [5] is 0.996. Further, in the assay with PSMA Fab [6], the “Phage binding ELISA signal, Anti-PSMA Fab with PSMA antigen” value came to 0.0681.

B22: Phage-2610 (peptide)
peptide: SSMLCIPPWMCEQS
modifications: cysteine pairing not given here; also: displayed on phage as pIII fusion, linker and pIII sequence not given here
notes: as for B2
Regarding B22, in the assay with PSMA Fab [3], the “Phage binding ELISA signal, Anti-PSMA Fab” value stood at 1.02. In the assay with PSMA Fab [4], the “Phage binding ELISA signal … of PSMA antigen” value was 0.0682.
